Measured values reported in the DeepSol protein solubility set.

assay: soluble on expression in E. coli; label from the status in PepcDB or PDB records

Row | Sequence | soluble on expression in E. coli
1 | DNVKYVSSVQRDKELLHAKYGKDIDKAEDVAKEYPSLESIVAKHPDIFVAGWNYGFSEEKNLTPDALKDQGIDSYILSESCRQEGSEKRGLYDPWEAVKMDISNIGKITSHADTADSVVKDIDSRLETLKKAPQADKAPTAFVFDSGTDTVFTSGKFGAPQAIIEAAGGRNGAENVEDTWTTVSWENLAASKPDVFVFVDYPGQEFEEKIAALRSNPATKNLPAVKENRFINLPYAMWTSGPLNIDAAEQMRKGFEKFGLVPSSEIKPSLELPASVPGQNYYK | not soluble
2 | MSLAFNYDEYLRVDKMPTQWCWGCGDGVVLKCIIRAIEKLGWNMDDVCLVSGIGCSGRMSSYVNCNTVHTTHGRAIAYATGIKLANPSKHVIVVSGDGDTLAIGGNHTIHGCRRNIDLTHIVINNFIYGLTNSQTSPTTPKGFYTVTAQFGNIDPNFDACELTKAAGASFVARGNVIEANKLENLIYKALAHKGYSFVDVFSNCHINLGRKNKMGEAVAMLDWIKNRVVDKAKFESMDFEERKDKFPTGILHEDNSQPEYCHAYEEVRRAAKEKRMVDLGALKEGHHHHHH | not soluble
3 | SLKVYSKDEIVEQAKELAKMISETEEVDFFKKAEAQIHKNENVKRAIDEIKALQKQAVNLQHYGKWEALKKVEAEIDALQDKLDSIPVVQEFKSSQTYVNDLLQLVASTISNNVTDEILISTNGDVLKGETGAAVESKKGNCGC | soluble
4 | MRTVTGAILAMNLEVKDFVHRDVEEADRRLREIGARKILLQLPDGLKPYAFDYFTYLSQRYDVILSSSPVYGACDIGPSYLYDRVDAIVQVGHSIMRNVKYPRPVIFIEHYRTVDVEDINTEALKNYRRIGLIYSIQYRPVADRVKRILESKGFEVIIGRSDRRMTYDGQVLGCNFSSVHSVEAEVEAFVIVSTGSFHALGSQISTERPVFLLDLNEMSLRSMEKEADTFIRKRYAQIYRAMDAKRICFLVDTRIGQRREKLARMLMDRARDLGKEAVLAYTDNISDQDIQNMGCDLAVYTGCPRVPIDDQDRFTVPVLTPAEFSMAFFKSSKRYVLDEIVSVDEFTDQLEHHHHHH | not soluble
5 | MAHHHHHHMGFSLLHPLPSAIHAGSNSSRLAVQRNPCRRSTEWCHGGSSGKQKKQRHCRGSEAGRPSGLPPNPRAPPPHHHRSAEGPRRPARHRRRHRRCTEDRPSSKPPAAHPRCRWARSPRRLSEHLGRLPLLGRRILLGCSQVDILRWGAAAGINALRNGDGCPLAILVQ | not soluble
6 | TSSDTQNNKTLAAMKNFAEQYAKRTDTYFCSDLSVTAVVIEGLARHKEELGSPLCPCRHYEDKEAEVKNTFWNCPCVPMRERKECHCMLFLTPDNDFAGDAQDIPMETLEEVKASMA | soluble
7 | MVSKLVKIEPKFKLIEKDGKGEYFIAKYNILPENLLVYGPEQELKKINTIQTNVKEFDTRTLFVSDYLEVVPPNPLVMFEKSHVVVNIYLNKLEHHHHHH | not soluble
8 | SQDEVETEVIIKDIFKQGKICFIPQYQFQSNHMDMVRLTSPEEIALLPKTSWNIHQPGEGDVREEALSTGGLDLIFLPGLGFDKDGNRLGRGKGYYDTYLKRCVQHQEVKPYTMALAFKEQICPQIPVDEHDMKVDEVLYEDSPAS | not soluble
9 | MNTHYVGPVLYTPKENVSEKLLKLFDADQPIIFCYTARFYDNVGESGKAIFDNMIKIADKIDASIIISTGNKKDELLALDIASKELKSGKVSIVDYVPLDMAYEKSDLVIHHGGHGSCLAQFYYGVPSVIIPTHTEREYNARMCEKLHVGKMLPRRELNSANLKNCINDVLNDITYKKSVRDWKEKVSGLEHHHHHH | not soluble
10 | MTEVKAMTKFYDVTFQELSGRSVVKTEVASDREPFDVWQDACASYSETELNIQINEDTFVTLNRHFVVRIDVKEVDGPVDKQVRRRDELMNVVNTLSNMGL | soluble
11 | MAFNQRTVVMIGPGEHYVTAKNEVIKTLLGSCVAVCLYDPKAQVIGMNHFLLAADRRKFTHFLDSRAGYYGVHAMEILINAMLKRGAQRKYLQSKIFGGANVLSLCADNILNHYDIGGMNIDFVRHFLQRERIPIISEDIGGHCGRVIYFDPTDYSVYRSLIEHKYEEIASLQDEEYRYFNQASEDIHSSGVPVVIWSD | soluble
12 | MRCQPFCRNLAGFPQNSPAQSTTMTYTHGSALPSTDDVTIDADVATEELTGTAAFDAGVGDMPSWEELVAQHADSVYRLAFRLSGNQHDAEDLTQETFMRVFRSLKGYQPGTFEGWLHRITTNLFLDMVRHRAKIRMEALPEDYERVPGTDMTPEQAYNVSNLDPALQKALDDLSPDFRVAVVLCDVVGMSYDEIADTLGVKMGTVRSRIHRGRSQLRAHLENQATSDEGAQLLLATGR | not soluble
13 | MGSDKIHHHHHHMIKAIALLRRKQGLSREQFIAYYETRHAPLIRSLLPGIEDYRRNYVDRTGAFESGIAAIDFDSVTEMRFASRASYDAFLAQAADPEIARLIADDEENVFDRSATRMFVVDETPAALSPDTPSPVLIDELLAERAIRDGLARFARVLDAKAWDALGDVFAADLTFDYGLGEQVGLEALTVNMRRFLDVCGPSQHLIGSIMITVDPGLQSATSRAYVRARHQRAGNSGGPVFDSNGEYVDRWECRAEGWRIVRRDALWQTQSGEAAIIWDGSPAAG | not soluble
14 | MLRPKEACQRLGISYATLREYVKKGYIKPVILQSGKQRFGEEDVERLMGIIRKRKVILYARVSSSTQKDELVNQVKYLEEQVKEYDLVITDIGSGLNMKRKGFLKLLRMILNNEVSRVVVAYPDRLVRVGFEILEEVCKAHNCEIVVLNQEDKEEELVEDLMSALVSFSGKLYGMRSHEYEKVKKCAEELKNWKI | not soluble
15 | MGTGQRKDPSQQRSQETVARILSATGQVLRAKGYTGCSTNAIAEAAGISKGSVYQYFANKDEIIEVLIDKIMEETTATFGTQLEQAVAKGTFLKDAALQSQLLAVLDRYCDILGSLLNDAPHLALTAHRSVRIEERCRDLLRTYVTLNPSAIGPGVDLEALLLVLTVSYREVSLEYLRRDLRDRRNELATVLYDMTMGGLAGRVTRGV | not soluble
16 | SLSMKLLIADDEDTIRNGIAKYIKLHTDRFSQIYLAENGQQALDIILQYQPDMMLLDVQMPLKTGLEVLQEAQKLSLVPKTIILSGYDDFEYARKALRYGAKDYLLKPCRSSEILEAINKLVQEQLGTKEDVECEEGTGIHYIVSSAIEYMEEYYHKNLTLIEVSNKVGITAGYLSTLFTQNMNCGFVEYLNKIRIKHACSYLEQNYFKTYEIAYKVGFKDEKYFSKVFKKETGITPYEYRRDHSIGKNIRTEG | soluble
17 | MKLQQLKYALEVYQHNLNVSEAAEALFTSQPGISKQIKLLEEEIGIQIFIRSGKRVVSVSQPGKVVLDIAERILRDVQNIKNIGSEFTGQDSGSLTVATTHTQARYALPLIVADFVKRYPKVNLTIKQGSPAAIARMVTSGEADLAIVTERIDDHPELGKLPCYDWTHAVIVPNDHPLLECRNPLRIEDLARFPLITYEFAFNAGSSIARAFSKARLEQPDVALAAADTDVLKTYVRLGLGVGLMAKMAYNPDTDGDLQLVDAAHLFEPSPTWIALRSDTYLRGYAYDFIQAFAPHLTREKVDRILYTPISEDFSI | soluble
18 | MGSDKIHHHHHHVNGLPLVELSGDAYTQGWQHGRALREAIAANLRIYMTRFERELRIPPDEVWRRALRYAAVIAEQNQDYAAGMRGIAEGAGVDLAAIAALNVRYELFYQFFREYERGTGKPDGCTAFALLPSETDNGHLLVGENWDWIQGVRGAILRTIAPDGLRTLAFTEAGIFGGKIGLNAAGLALLINGLSSTGDDWASLRRPFHVRCYEILQARSLTEAQAVITSEERAGSANFLLAQVPDRVVNIEAAPAALAISGCTNGCLVHANHFTDPAALGIVERQIERYPHSYWRQERLRSLLASRPQSLAQVQAALRDHEQFPYSVCFHIDPADPPDEYYETVASVIMDVTAGVLYATDGPPCEHAYVRYELEVAR | not soluble
